{"source": "paper PMC7614532", "about": "(Cell, 2023)", "binders": {"B1": {"name": "bovine βArr2 tagged C-terminally with Halo (βArr2-Halo) (natural protein)", "chain": "MGEKPGTRVFKKSSPNCKLTVYLGKRDFVDHLDKVDPVDGVVLVDPDYLKDRKVFVTLTCAFRYGREDLDVLGLSFRKDLFIANYQAFPPTPNPPRPPTRLQERLLRKLGQHAHPFFFTIPQNLPCSVTLQPGPEDTGKACGVDFEIRAFCAKSLEEKSHKRNSVRLVIRKVQFAPEKPGPQPSAETTRHFLMSDRSLHLEASLDKELYYHGEPLNVNVHVTNNSTKTVKKIKVSVRQYADICLFSTAQYKCPVAQVEQDDQVSPSSTFCKVYTITPLLSNNREKRGLALDGKLKHEDTNLASSTIVKEGANKEVLGILVSYRVKVKLVVSRGGDVSVELPFVLMHPKPHDHIALPRPQSAAPETDAPVDTNLIEFETNYATDDDIVFEDFARLRLKGLKDEDYDDQFC"}}, "target": "N-terminally SNAP-tagged human β2AR (SNAP-β2AR) (human, UniProt P07550 1-413)", "test": "single-molecule co-localisation", "data": [{"binder": "B1", "values": [{"measurement": "average interaction time", "value": "~1", "unit": "s"}]}]}
